In paper PMC10784701:

Target: RedM, N,N-dimethyltransferase of the reductasporine biosynthetic pathway
Test: SEC; size-exclusion chromatography of purified RedM in solution (Fig. S3); conditions of this run not shown

- stoichiometry N: 2
Substance: RedM, N,N-dimethyltransferase of the reductasporine biosynthetic pathway (enzyme)
